Assay results as given in patent publication US7354588B1, “Functional derivatives of ICAM-1 with altered ability to bind LFA-1 or HRV” (Dana Farber Cancer Institute, priority 1987, dated 2008).

How the values were obtained:
[1] = test system: RR1/1 mAb; experiment: Indirect immunofluorescence flow cytofluorometry: mAb RR1/1 binding to COS cells expressing ICAM-1 mutants (SLFI, % CL203); format: cell-based; conditions: SLFI normalized to CL203 SLFI of the mutant
Protocol: (§1) For HRV binding studies, COS cells were reseeded in a 24 well plate. One day later, the confluent monolayer was washed twice with 1 ml of RPMI 1640/10 mM MgCl2/25 mM Hepes pH 7.3 (rhinovirus-14 buffer). Transfected COS cells were labeled with 51Cr for binding to LFA-1 coated plastic as previously described (Staunton, D. E., et al., Nature 339:61-64 (1989). Immunoprecipitation and indirect immunofluorescence was performed using ICAM-1 MAb RR1/1 (Rothlein, R., et al., J. Immunol. 137:1270-1274 (1986)), R6.5 (Rothlein, R., et al., J. Immunol. 141:1665-1669 (1988)), LB-1 (Clark, E. A., et al., Hum. Immunol. 16:100-113 (1986)) and CL203 (Maio, M., J. Immunol. 143:181-188 (1989), all of which references are incorporated herein by reference).
(§2) Binding of RR1, R6.5, and LB-2 mAb was normalized to binding of CL203 mAb using Specific Linear Fluorescence Intensity (SLFI): % CL203=(mAbSLFI)×100)/CL203mABSLFI
(§3) In Table 25, the notation for the mutations uses the one-letter code for the wild-type sequence followed by a slash and the one-letter code for the corresponding mutant sequence. The position of the first amino acid within the sequence is indicated. Wild type residues precede the slash followed by the residues they were substituted for in the mutant. COS cells expressing ICAM-1 mutants were tested for adherence to LFA-1 coated plastic and for binding 35S met-labeled HRV14. LFA-1 and HRV14 binding is normalized for percent of cells expressing mutant ICAM-1 and for binding of wild type expressing cells. Binding is presented as mean and standard error (SE) for multiple experiments (n). Effects of two-fold or greater were reproducible in LFA-1, HRV and mAb binding assays and thus considered significant (bold and underlined). The specific linear fluorescence intensity (SLFI) of CL203 for each mutant is normalized to that of wild type CL203 SLFI (% WT) as discussed above. The SLFI of RR1/1, R6.5 and LB-2 SLFI is normalized to the CL203 SLFI of the mutant (% CL203) as described above.

[2] = test system: HRV14; experiment: Binding of [^35S]-Met labeled HRV14 to COS cells expressing ICAM-1 mutants; format: cell-based, human rhinovirus 14; conditions: for HRV Binding %: 35S met-labeled HRV14 binding to COS cells expressing ICAM-1 mutant, normalized for percent of cells expressing mutant and for wild type binding, mean
[3] = test system: LB-2 mAb; experiment: Indirect immunofluorescence flow cytofluorometry: mAb LB-2 binding to COS cells expressing ICAM-1 mutants (SLFI, % CL203); format: cell-based; conditions: SLFI normalized to CL203 SLFI of the mutant
Protocol: as §1, §2, §3

[4] = target: T1, LFA-1 (Homo sapiens, UniProt P05107+P20701); experiment: Adherence of COS cells expressing ICAM-1 or ICAM-1 mutants to plastic-bound purified LFA-1; format: cell-based; conditions: COS cells expressing ICAM-1 mutant adhering to LFA-1 coated plastic; normalized for percent of cells expressing mutant and for wild type binding; mean
T1 construct: endogenous in cells
T1 sequence (P20701 26-1170): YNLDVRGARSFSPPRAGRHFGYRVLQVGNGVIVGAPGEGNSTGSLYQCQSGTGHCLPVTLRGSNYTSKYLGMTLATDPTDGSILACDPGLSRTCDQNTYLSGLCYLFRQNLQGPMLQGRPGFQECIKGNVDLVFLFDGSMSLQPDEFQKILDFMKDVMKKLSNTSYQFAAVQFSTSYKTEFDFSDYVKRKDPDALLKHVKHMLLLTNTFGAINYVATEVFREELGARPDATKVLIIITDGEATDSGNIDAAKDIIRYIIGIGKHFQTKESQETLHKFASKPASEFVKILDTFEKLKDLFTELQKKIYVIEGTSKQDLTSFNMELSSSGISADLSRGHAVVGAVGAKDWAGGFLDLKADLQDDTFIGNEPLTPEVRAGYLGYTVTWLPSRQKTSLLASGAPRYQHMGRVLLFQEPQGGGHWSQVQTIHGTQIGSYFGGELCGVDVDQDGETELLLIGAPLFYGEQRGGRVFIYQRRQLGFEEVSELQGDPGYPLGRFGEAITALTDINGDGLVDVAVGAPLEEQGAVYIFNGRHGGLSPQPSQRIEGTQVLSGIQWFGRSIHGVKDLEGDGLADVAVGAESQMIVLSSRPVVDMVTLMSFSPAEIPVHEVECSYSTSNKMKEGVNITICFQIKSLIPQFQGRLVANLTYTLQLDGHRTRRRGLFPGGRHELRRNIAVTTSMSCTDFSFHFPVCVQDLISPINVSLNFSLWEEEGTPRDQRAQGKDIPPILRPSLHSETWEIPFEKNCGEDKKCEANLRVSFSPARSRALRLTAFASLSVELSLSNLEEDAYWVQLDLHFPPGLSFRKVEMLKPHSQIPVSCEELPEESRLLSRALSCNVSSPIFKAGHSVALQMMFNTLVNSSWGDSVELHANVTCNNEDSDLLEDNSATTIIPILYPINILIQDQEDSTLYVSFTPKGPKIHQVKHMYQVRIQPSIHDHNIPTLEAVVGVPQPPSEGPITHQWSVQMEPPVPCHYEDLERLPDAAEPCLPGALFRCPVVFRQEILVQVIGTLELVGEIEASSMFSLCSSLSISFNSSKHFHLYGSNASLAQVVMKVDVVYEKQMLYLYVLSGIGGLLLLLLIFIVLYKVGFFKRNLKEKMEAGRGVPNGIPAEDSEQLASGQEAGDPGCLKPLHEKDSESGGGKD
T1 sequence (P05107 23-769): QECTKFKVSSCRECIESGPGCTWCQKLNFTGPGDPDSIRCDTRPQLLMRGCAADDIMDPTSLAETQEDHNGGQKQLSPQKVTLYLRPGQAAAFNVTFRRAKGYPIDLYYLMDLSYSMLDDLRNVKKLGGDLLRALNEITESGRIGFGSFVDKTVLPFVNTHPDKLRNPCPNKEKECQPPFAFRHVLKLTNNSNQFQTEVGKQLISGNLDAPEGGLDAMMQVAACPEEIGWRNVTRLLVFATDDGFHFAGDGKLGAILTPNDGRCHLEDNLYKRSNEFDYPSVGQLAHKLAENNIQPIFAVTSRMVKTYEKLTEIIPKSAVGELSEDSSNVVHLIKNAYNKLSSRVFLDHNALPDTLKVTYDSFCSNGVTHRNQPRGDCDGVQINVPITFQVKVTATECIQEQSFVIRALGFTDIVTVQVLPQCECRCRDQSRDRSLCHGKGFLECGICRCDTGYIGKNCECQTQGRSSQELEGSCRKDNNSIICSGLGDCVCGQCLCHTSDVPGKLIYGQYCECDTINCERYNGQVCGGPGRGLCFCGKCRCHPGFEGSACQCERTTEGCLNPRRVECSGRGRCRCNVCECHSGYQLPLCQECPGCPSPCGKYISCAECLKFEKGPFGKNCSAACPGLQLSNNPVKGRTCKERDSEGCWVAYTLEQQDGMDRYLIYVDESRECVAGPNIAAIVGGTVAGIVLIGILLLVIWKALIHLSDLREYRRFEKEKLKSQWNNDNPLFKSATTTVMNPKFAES

[5] = test system: CL203 mAb; experiment: Indirect immunofluorescence flow cytofluorometry: mAb CL203 binding to COS cells expressing ICAM-1 mutants (SLFI, % WT); format: cell-based; conditions: SLFI of CL203 for mutant normalized to wild type CL203 SLFI; level of expression
Protocol: as §1, §2, §3

[6] = test system: R6.5 mAb; experiment: Indirect immunofluorescence flow cytofluorometry: mAb R6.5 binding to COS cells expressing ICAM-1 mutants (SLFI, % CL203); format: cell-based; conditions: SLFI normalized to CL203 SLFI of the mutant
Protocol: as §1, §2, §3

| Molecule | SLFI (% CL203) RR/1 [1] [% CL203] | HRV Binding % [2] [%] | decrease in HRV14 binding ([2]; COS cells expressing the mutant, relative to wild type) | SLFI (% CL203) LB-2 [3] [% CL203] | LFA-1 Binding % [4] [%] | Cl203 % WT (SLFI) [5] [% WT] | SLFI (% CL203) R6.5 [6] [% CL203] |
| --- | --- | --- | --- | --- | --- | --- | --- |
| G46NN/ASI: ICAM-1 substitution mutant, G46NN to ASI (protein, UniProt P05362 28-532, looked up, variant G46A N47S N48I) Intercellular adhesion …: QTSVSPSKVILPRGGSVLVTCSTSCDQPKLLGIETPLPKKELLLPASIRKVYELSNVQEDSQPMCYSNCPDGQSTAKTFLTVYWTPERVELAPLPSWQPVGKNLTLRCQVEGGAPRANLTVVLLRGEKELKREPAVGEPAEVTTTVLVRRDHHGANFSCRTELDLRPQGLELFENTSAPYQLQTFVLPATPPQLVSPRVLEVDTQGTVVCSLDGLFPVSEAQVHLALGDQRLNPTVTYGNDSFSAKASVSVTAEDEGTQRLTCAVILGNQSQETLQTVTIYSFPAPNVILTKPEVSEGTEVTVKCEAHPRAKVTLNGVPAQPLGPRAQLLLKATPEDNGRSFSCSATLEVAGQLIHKNQTRELRVLYGPRLDERDCPGNWTWPENSQQTPMCQAWGNPLPELKCLKDGTFPLPIGESVTVTRDLEGTYLCRARSTQGEVTRKVTVNVLSPRYEIVIITVVAAAVIMGTAGLSTYLYNRQRKIKKYRLQQAQKGTPMKPNTQATPP | 140 | 9 | ten-fold | 113 | 49 | 151 | 107 |
| Q58EDS/AKDI (protein, UniProt P05362 28-532, looked up, variant Q58A E59K S61I) Intercellular adhesion …: QTSVSPSKVILPRGGSVLVTCSTSCDQPKLLGIETPLPKKELLLPGNNRKVYELSNVAKDIQPMCYSNCPDGQSTAKTFLTVYWTPERVELAPLPSWQPVGKNLTLRCQVEGGAPRANLTVVLLRGEKELKREPAVGEPAEVTTTVLVRRDHHGANFSCRTELDLRPQGLELFENTSAPYQLQTFVLPATPPQLVSPRVLEVDTQGTVVCSLDGLFPVSEAQVHLALGDQRLNPTVTYGNDSFSAKASVSVTAEDEGTQRLTCAVILGNQSQETLQTVTIYSFPAPNVILTKPEVSEGTEVTVKCEAHPRAKVTLNGVPAQPLGPRAQLLLKATPEDNGRSFSCSATLEVAGQLIHKNQTRELRVLYGPRLDERDCPGNWTWPENSQQTPMCQAWGNPLPELKCLKDGTFPLPIGESVTVTRDLEGTYLCRARSTQGEVTRKVTVNVLSPRYEIVIITVVAAAVIMGTAGLSTYLYNRQRKIKKYRLQQAQKGTPMKPNTQATPP | 10 | 0 | – | 7 | 3 | 98 | 22 |
| Q62PM/API (protein, UniProt P05362 28-532, looked up, variant Q62A M64I) Intercellular adhesion …: QTSVSPSKVILPRGGSVLVTCSTSCDQPKLLGIETPLPKKELLLPGNNRKVYELSNVQEDSAPICYSNCPDGQSTAKTFLTVYWTPERVELAPLPSWQPVGKNLTLRCQVEGGAPRANLTVVLLRGEKELKREPAVGEPAEVTTTVLVRRDHHGANFSCRTELDLRPQGLELFENTSAPYQLQTFVLPATPPQLVSPRVLEVDTQGTVVCSLDGLFPVSEAQVHLALGDQRLNPTVTYGNDSFSAKASVSVTAEDEGTQRLTCAVILGNQSQETLQTVTIYSFPAPNVILTKPEVSEGTEVTVKCEAHPRAKVTLNGVPAQPLGPRAQLLLKATPEDNGRSFSCSATLEVAGQLIHKNQTRELRVLYGPRLDERDCPGNWTWPENSQQTPMCQAWGNPLPELKCLKDGTFPLPIGESVTVTRDLEGTYLCRARSTQGEVTRKVTVNVLSPRYEIVIITVVAAAVIMGTAGLSTYLYNRQRKIKKYRLQQAQKGTPMKPNTQATPP | 59 | 182 | – | 73 | 104 | 200 | 81 |
| D71GQS/NGEL (protein, UniProt P05362 28-532, looked up, variant D71N Q73E S74L) Intercellular adhesion …: QTSVSPSKVILPRGGSVLVTCSTSCDQPKLLGIETPLPKKELLLPGNNRKVYELSNVQEDSQPMCYSNCPNGELTAKTFLTVYWTPERVELAPLPSWQPVGKNLTLRCQVEGGAPRANLTVVLLRGEKELKREPAVGEPAEVTTTVLVRRDHHGANFSCRTELDLRPQGLELFENTSAPYQLQTFVLPATPPQLVSPRVLEVDTQGTVVCSLDGLFPVSEAQVHLALGDQRLNPTVTYGNDSFSAKASVSVTAEDEGTQRLTCAVILGNQSQETLQTVTIYSFPAPNVILTKPEVSEGTEVTVKCEAHPRAKVTLNGVPAQPLGPRAQLLLKATPEDNGRSFSCSATLEVAGQLIHKNQTRELRVLYGPRLDERDCPGNWTWPENSQQTPMCQAWGNPLPELKCLKDGTFPLPIGESVTVTRDLEGTYLCRARSTQGEVTRKVTVNVLSPRYEIVIITVVAAAVIMGTAGLSTYLYNRQRKIKKYRLQQAQKGTPMKPNTQATPP | 0 | 21 | – | 26 | 1 | 161 | 48 |
| S3VS/AGL (protein, UniProt P05362 28-532, looked up, variant S3A V4G S5L) Intercellular adhesion …: QTAGLPSKVILPRGGSVLVTCSTSCDQPKLLGIETPLPKKELLLPGNNRKVYELSNVQEDSQPMCYSNCPDGQSTAKTFLTVYWTPERVELAPLPSWQPVGKNLTLRCQVEGGAPRANLTVVLLRGEKELKREPAVGEPAEVTTTVLVRRDHHGANFSCRTELDLRPQGLELFENTSAPYQLQTFVLPATPPQLVSPRVLEVDTQGTVVCSLDGLFPVSEAQVHLALGDQRLNPTVTYGNDSFSAKASVSVTAEDEGTQRLTCAVILGNQSQETLQTVTIYSFPAPNVILTKPEVSEGTEVTVKCEAHPRAKVTLNGVPAQPLGPRAQLLLKATPEDNGRSFSCSATLEVAGQLIHKNQTRELRVLYGPRLDERDCPGNWTWPENSQQTPMCQAWGNPLPELKCLKDGTFPLPIGESVTVTRDLEGTYLCRARSTQGEVTRKVTVNVLSPRYEIVIITVVAAAVIMGTAGLSTYLYNRQRKIKKYRLQQAQKGTPMKPNTQATPP | 5 | 61 | – | 9 | 18 | 121 | 31 |
| E111GGA/KAGS (protein, UniProt P05362 28-532, looked up, variant E111K G112A A114S) Intercellular adhesion …: QTSVSPSKVILPRGGSVLVTCSTSCDQPKLLGIETPLPKKELLLPGNNRKVYELSNVQEDSQPMCYSNCPDGQSTAKTFLTVYWTPERVELAPLPSWQPVGKNLTLRCQVKAGSPRANLTVVLLRGEKELKREPAVGEPAEVTTTVLVRRDHHGANFSCRTELDLRPQGLELFENTSAPYQLQTFVLPATPPQLVSPRVLEVDTQGTVVCSLDGLFPVSEAQVHLALGDQRLNPTVTYGNDSFSAKASVSVTAEDEGTQRLTCAVILGNQSQETLQTVTIYSFPAPNVILTKPEVSEGTEVTVKCEAHPRAKVTLNGVPAQPLGPRAQLLLKATPEDNGRSFSCSATLEVAGQLIHKNQTRELRVLYGPRLDERDCPGNWTWPENSQQTPMCQAWGNPLPELKCLKDGTFPLPIGESVTVTRDLEGTYLCRARSTQGEVTRKVTVNVLSPRYEIVIITVVAAAVIMGTAGLSTYLYNRQRKIKKYRLQQAQKGTPMKPNTQATPP | 81 | 162 | – | 89 | 103 | 122 | 0 |
